Our source for the binding values is PMC10448178.

One data set concerns the target T1, AhrC (Bacillus subtilis) (UniProt P17893).
T1 sequence: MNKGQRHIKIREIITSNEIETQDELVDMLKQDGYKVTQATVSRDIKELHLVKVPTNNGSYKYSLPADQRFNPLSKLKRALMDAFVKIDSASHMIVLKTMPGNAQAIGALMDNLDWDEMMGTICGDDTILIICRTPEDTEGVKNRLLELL
In words: EMSA. The note with it: 10 mM Tris-HCl pH 7.5, 43 mM NaCl, 1 mM MnCl2, 1 mM DTT, 5% glycerol, 1 ug poly[dI-dC] per 14 ul, 23 C 15 min; 5% PAGE in 40 mM Tris-acetate at 4 C.
With “CCGAAGCTTTCTCCTAAATCACAGTTTAAATCAATCTGAAACACAGAATCCCTCCTGCCAAAGCAAACGATATGCTTTATGTCATTTATTGTCCCGAAATTCGGAACGACTATTCCGAATTTTTGAACTTTATTTCATTATAAGTGAATCATATCAGTTTGTGAAATACTTTTGTCAGAAAACCTACCATGGTCCCAGAATAAAACCTGCCAAACTAAAAAAGAGAGTCCATCTTAGGACTCTGAATTCGAT (double strand) [PpxpA probe 2]”, the binding entry is listed as “binds”. As for “CCGAAGCTTTCTCCTAAATCACAGTTTAAATCAATCTGAAACACAGAATCCCTCCTGCCAAAGCAAACGATATGCTTTATGTCATTTATTGTCCCGAAATTCGGAACGACTATTCCGAATTTTTGAACTTTATTTCATTATAAGTGAATCATATCAGTTTGTGAAATACTTTTGTCAGAAAACCTACCATGGTCCCAGAATAAAACCTGCCAAACTAAAGAATTCGAT (double strand) [PpxpA probe 3]”, the binding result is “binds more weakly”. On the same count and under the same terms, in the case of “GCGCTTTCAGCGAATGTGTGGAAAAAATGTTTCGTTTTTTATTCGCTGTGTGATTTTGCGTAATATTTACAATTCGATAGAATGCGAGAAGCACTGGTGTCCTTGGGTTTGATGGGATTTTTGGCGGAGCAAATAAATTGGATGAGAGAAAAAGTGTTCCTTCGTCACTATTTTTCTGTGGCGGGTGAATCATGTTTCTGTAGACCCACTGCGGATCAGCTTTGTAAGATAATAATAGGAAAATGTGAGCGAGAGGAGGTTTTGTATGGAGAGATATGATGAACTG (double strand) [PmneS]” it was “binds”. The same measure, in the same setting: as for “TTTAGTTTGGCAGGTTTTATTCTGGGACCATGGTAGGTTTTCTGACAAAAGTATTTCACAAACTGATATGATTCACTTATAATGAAATAAAGTTCAAAAATTCGGAAGCTTCCG (double strand) [PpxpA probe 5]”, the entry is “binds more weakly”.

The target of the next data set is T2, MntR (Bacillus subtilis) (UniProt P54512).
T2 sequence: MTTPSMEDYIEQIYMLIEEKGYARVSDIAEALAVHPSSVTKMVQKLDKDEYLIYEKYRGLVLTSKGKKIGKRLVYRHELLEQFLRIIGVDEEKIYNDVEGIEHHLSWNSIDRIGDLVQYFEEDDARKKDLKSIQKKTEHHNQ
In words: EMSA. The conditions noted are these: 10 mM Tris-HCl pH 7.5, 43 mM NaCl, 1 mM MnCl2, 1 mM DTT, 5% glycerol, 1 ug poly[dI-dC] per 14 ul, 23 C 15 min; 5% PAGE in 40 mM Tris-acetate at 4 C.
As for “ATGAAGCTTCAAAGAGTTTCCTTAAGGCAAATTATTTTATCTACATCATATGACCATCCCGGTTTCTTGTCAACCGAAAATGTTCAAAATACACTTCTGAATTTTTCCCTGTTATGTAACATGATATGTAGGGATTCGTGATAAGGTCCCATATAAAAAGACATCGTTTCATTTCGAAACGATGCCTCCTGTATCTAATGAGTCTAGGCTTCCTTCCGCAGCCCGCGGAATATAAGGCCCAGCAAGAACACGAAGATGGCTGCCCCGATGATGGCCGGGA (double strand) [PmntH del1]”, the binding entry is given as “binds”. Same read-out and setting: in the case of “ATGAAGCTTTTATCTACATCATATGACCATCCCGGTTTCTTGTCAACCGAAAATGTTCAAAATACACTTCTGAATTTTTCCCTGTTATGTAACATGATATGTAGGGATTCGTGATAAGGTCCCATATAAAAAGACATCGTTTCATTTCGAAACGATGCCTCCTGTATCTAATGAGTCTAGGCTTCCTTCCGCAGCCCGCGGAATATAAGGCCCAGCAAGAACACGAAGATGGCTGCCCCGATGATGGCCGGGA (double strand) [PmntH del2]” it was “no binding”.
